Values belong to the binder of their own block, whether it stands above or below them.
How the values were obtained:
[1] = target: T1, Recombinant Human DLL4 (Cat# 1506-D4/CF) (human, UniProt Q9NR61 27-529); assay: Multispot ECL; Fab 17.5 nM
T1 construct: Bought from R&D Systems; also called rHuman DLL4; hDLL4
Experimental: (§1) An 150 μl aliquot of 1% Bovine Serum Albumin (BSA) in Tris-buffered Saline Tween (TBST) was added to each well and allowed to incubate for 30 min at 20° C. followed by washing and tap drying to completely remove any residual solution. Subsequently, a 12.5 μl aliquot of 1% BSA TBST was added to each well followed by the addition of a 12.5 μl aliquot of a purified Fab. The plate was sealed and incubated for 1 hour at 20° C. with shaking.
(§2) Detection antibodies were prepared by individually conjugating both goat anti-human Kappa light chain polyclonal antibody (K3502-1MG, Sigma-Aldrich) and goat anti-human Lambda light chain polyclonal antibody (L1645-1 mL, Sigma-Aldrich) with Ruthenium (II) tris-bipyridine-(4-methylsulfone)-N-hydroxysuccinimide (SULFO-TAG NHS-ester, Meso Scale Discovery) according to the manufacturer's instructions. TAG-detection antibody at 25 μl was added to each well and allowed to incubate for 1 hour at 20° C. with shaking. Finally, 15 μl of Read Buffer P with Surfactant (Cat # R92PC-1, Meso Scale Discovery) was added to each well. The electrochemiluminescence was measured using a Sector Imager 2400 (Meso Scale Discovery). Data was analyzed by comparing the ECL signals for an antigen to the blank of each well. A signal to blank ratio of 4 or more was considered a “Hit” Fab. […]

[2] = target: T2, rHuman HGF R/c-MET/Fc Chimera, CF (Cat# 358-MT/CF) (human, UniProt P08581 25-932); assay: Multispot ECL; Fab 17.5 nM
T2 construct: Bought from R&D Systems; also called HGF R/Fc; hepatocyte growth factor receptor (HGF R/c-Met)
Experimental: as §1, §2

[3] = target: T1, Recombinant Human DLL4 (Cat# 1506-D4/CF); assay: Multispot ECL; Fab 4.375 nM
Experimental: as §1, §2

[4] = target: T2, rHuman HGF R/c-MET/Fc Chimera, CF (Cat# …); assay: Multispot ECL; Fab 4.375 nM
Experimental: as §1, §2

[5] = target: T1, Recombinant Human DLL4 (Cat# 1506-D4/CF); assay: Multispot ECL; Fab 70 nM
Experimental: as §1, §2

[6] = target: T2, rHuman HGF R/c-MET/Fc Chimera, CF (Cat# …); assay: Multispot ECL; Fab 70 nM
Experimental: as §1, §2

[7] = target: T1, Recombinant Human DLL4 (Cat# 1506-D4/CF); assay: Multispot ECL; Fab 280 nM
Experimental: as §1, §2

[8] = target: T2, rHuman HGF R/c-MET/Fc Chimera, CF (Cat# …); assay: Multispot ECL; Fab 280 nM
Experimental: as §1, §2

[9] = target: T3, rHuman IGF-1 sR, (IGF-1 sR), CF (Cat# 391-GR) (human, UniProt P08069 31-932); assay: Multispot ECL; Fab 57.5 nM
T3 construct: Bought from R&D Systems; also called insulin-like growth factor-1 soluble receptor
Experimental: as §1
(§3) Detection antibodies were prepared by individually conjugating both goat anti-human Kappa light chain polyclonal antibody (K3502-1MG, Sigma-Aldrich) and goat anti-human Lambda light chain polyclonal antibody (L1645-1 mL, Sigma-Aldrich) with Ruthenium (II) tris-bipyridine-(4-methylsulfone)-N-hydroxysuccinimide (SULFO-TAG NHS-ester, Meso Scale Discovery) according to the manufacturer's instructions. TAG-detection antibody at 25 μl was added to each well and allowed to incubate for 1 hour at 20° C. with shaking. Finally, 15 μl of Read Buffer P with Surfactant (Cat # R92PC-1, Meso Scale Discovery) was added to each well. The electrochemiluminescence was measured using a Sector Imager 2400 (Meso Scale Discovery). Data was analyzed by comparing the ECL signals for an antigen to the blank of each well. A signal to blank ratio of 4 or more was considered a “Hit” Fab.
(§4) To confirm a “Hit” from the initial Multispot ECL screening, a Fab concentration dependent titration was carried out to determine the Fab-antigen binding affinity.

[10] = target: T1, Recombinant Human DLL4 (Cat# 1506-D4/CF); assay: Multispot ECL; Fab 57.5 nM
Experimental: as §1, §3, §4

[11] = target: T4, rHuman Erythropoietin R/Fc Chimera, CF (Cat# 963-ER) (human, UniProt P19235 25-250); assay: Multispot ECL; Fab 57.5 nM
T4 construct: Bought from R&D Systems; also called EPO R/Fc; Epo R/Fc chimera
T4 sequence (looked up): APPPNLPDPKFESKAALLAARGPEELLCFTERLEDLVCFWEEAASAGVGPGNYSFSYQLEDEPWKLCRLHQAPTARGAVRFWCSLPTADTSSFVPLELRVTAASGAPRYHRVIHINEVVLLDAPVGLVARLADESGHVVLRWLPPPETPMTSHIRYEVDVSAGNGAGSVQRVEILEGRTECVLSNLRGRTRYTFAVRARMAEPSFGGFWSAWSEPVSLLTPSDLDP
Experimental: as §1, §3, §4

[12] = target: T5, rHuman Notch-1/Fc Chimera, CF (Cat# 3647-TK) (human, UniProt P46531 19-526); assay: Multispot ECL; Fab 57.5 nM
T5 construct: Bought from R&D Systems
Experimental: as §1, §3, §4

[13] = target: T3, rHuman IGF-1 sR, (IGF-1 sR), CF (Cat# …); assay: Multispot ECL; Fab 14.375 nM
Experimental: as §1, §3, §4

[14] = target: T1, Recombinant Human DLL4 (Cat# 1506-D4/CF); assay: Multispot ECL; Fab 14.375 nM
Experimental: as §1, §3, §4

[15] = target: T4, rHuman Erythropoietin R/Fc Chimera, CF …; assay: Multispot ECL; Fab 14.375 nM
Experimental: as §1, §3, §4

[16] = target: T5, rHuman Notch-1/Fc Chimera, CF (Cat# …); assay: Multispot ECL; Fab 14.375 nM
Experimental: as §1, §3, §4

[17] = target: T3, rHuman IGF-1 sR, (IGF-1 sR), CF (Cat# …); assay: Multispot ECL; Fab 230 nM
Experimental: as §1, §3, §4

[18] = target: T1, Recombinant Human DLL4 (Cat# 1506-D4/CF); assay: Multispot ECL; Fab 230 nM
Experimental: as §1, §3, §4

[19] = target: T4, rHuman Erythropoietin R/Fc Chimera, CF …; assay: Multispot ECL; Fab 230 nM
Experimental: as §1, §3, §4

[20] = target: T5, rHuman Notch-1/Fc Chimera, CF (Cat# …); assay: Multispot ECL; Fab 230 nM
Experimental: as §1, §3, §4

[21] = target: T3, rHuman IGF-1 sR, (IGF-1 sR), CF (Cat# …); assay: Multispot ECL; Fab 920 nM
Experimental: as §1, §3, §4

[22] = target: T1, Recombinant Human DLL4 (Cat# 1506-D4/CF); assay: Multispot ECL; Fab 920 nM
Experimental: as §1, §3, §4

[23] = target: T4, rHuman Erythropoietin R/Fc Chimera, CF …; assay: Multispot ECL; Fab 920 nM
Experimental: as §1, §3, §4

[24] = target: T5, rHuman Notch-1/Fc Chimera, CF (Cat# …); assay: Multispot ECL; Fab 920 nM
Experimental: as §1, §3, §4

[25] = target: T6, recombinant mouse DLL4 (Cat# 1389-D4-050/CF, R&D Systems) (mouse, UniProt Q9JI71 28-525); assay: ELISA, mDLL4 or hDLL4 coated
T6 construct: also called mDLL4

[26] = target: T7, Recombinant Human DLL4 (Cat# 1506-D4/CF, R&D Systems) (human, UniProt Q9NR61 27-529); assay: ELISA, DLL4 coated
T7 construct: Bought protein; also called rHuman DLL4; hDLL4

[27] = target: T7, Recombinant Human DLL4 (Cat# …); assay: ELISA, hDLL4 coated, estimated from dose-dependent binding
[28] = target: T7, Recombinant Human DLL4 (Cat# …); assay: SPR, DLL4 immobilised
Experimental: In this example, the binding affinities of selected anti-DLL4 Fabs to recombinant human DLL4 (hDLL4, Cat# 1506-D4/CF, R&D Systems) were analyzed using Surface Plasmon Resonance (SPR) (Biosensor Tools, Salt Lake City, Utah). The Fabs analyzed include germline-derived antibodies and germline-modified DLL4 antibodies. Recombinant hDLL4 was immobilized on a SPR chip using amine coupling at three different surface densities. The Fabs were serially diluted 3-fold, with an initial concentration of 1 μM. Binding studies were run on a ProteOn system using a GLM sensor chip in 10 mM HEPES, pH 7.4, 150 mM NaCl, 0.01% Tween-20, and 0.1 mg/ml BSA at 25° C. The response data from each surface was globally fit to determine the binding constants.

[29] = target: T8, DLL4 DSL (amino acid: 1-217) construct (human, UniProt Q9NR61 26-217); assay: Western blot, non-reducing
T8 construct: also called DSL construct; not shown: myc tag (and his tag) added by the PCR primers
Experimental: (§5) Media from transfected CHO cells was collected after 7 days. To enrich for the DLL4 protein, 1 ml aliquots of each sample were batch bound with 50 μl of Talon Resin for 30 minutes. To confirm protein production media samples were tested with mouse anti-c-myc mAb (Genescript; Catalog # A00704). Samples were washed and then boiled with loading dye in the presence or absence of DTT. A gel was run on each of the 2 samples for each condition: with DTT and without DTT. […] For detection goat anti-mouse HRP, goat anti-kappa HRP, and goat anti-lambda HRP were used, respectively.

[30] = target: T9, DLL4 Egf1 (amino acid: 1-251) construct (human, UniProt Q9NR61 26-251); assay: Western blot, non-reducing
T9 construct: also called EGF1 construct; not shown: myc tag (and his tag) added by the PCR primers
Experimental: as §5

[31] = target: T7, Recombinant Human DLL4 (Cat# …); assay: ECL competition, DLL4 coated; competitor 100 nM Ru-labeled Fab H:APF & L:wt
Experimental: Briefly, single spot 96-well standard plates (MSD) were coated overnight with 5 μl per well of 10 μg/ml DLL4 (R&D systems) in PBS with 0.03% Triton X-100. Some wells were left uncoated as blank. The next day, an 150 μl aliquot of 3% BSA in TBST was added to each well and allowed to incubate for 60 min at 20° C. to block the plate. […] After incubating the plate at 20° C. with shaking for 1 hour, the ECL signal was measured using a Sector Imager 2400.

T6 sequence (Q9JI71 28-525 limits assumed): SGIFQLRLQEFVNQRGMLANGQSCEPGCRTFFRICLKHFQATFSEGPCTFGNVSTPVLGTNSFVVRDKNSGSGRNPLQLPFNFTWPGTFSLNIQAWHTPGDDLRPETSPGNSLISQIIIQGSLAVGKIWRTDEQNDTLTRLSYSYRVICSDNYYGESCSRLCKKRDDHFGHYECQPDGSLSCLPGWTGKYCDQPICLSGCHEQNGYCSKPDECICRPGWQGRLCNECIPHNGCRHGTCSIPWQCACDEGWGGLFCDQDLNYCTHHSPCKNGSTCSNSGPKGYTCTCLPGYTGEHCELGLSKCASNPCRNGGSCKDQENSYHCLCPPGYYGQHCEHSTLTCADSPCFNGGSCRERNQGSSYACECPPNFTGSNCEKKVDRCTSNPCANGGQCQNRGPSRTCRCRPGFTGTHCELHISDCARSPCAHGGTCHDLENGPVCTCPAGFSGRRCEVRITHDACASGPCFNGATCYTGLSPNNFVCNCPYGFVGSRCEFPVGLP

- ECL signal [1]: 1220
- ECL signal [2]: 565
- ECL signal [3]: 558
- ECL signal [4]: 193
- ECL signal [5]: 2750
- ECL signal [6]: 1290
- ECL signal [7]: 8110
- ECL signal [8]: 3560
B1: Fab VH1-46_IGHD2-15*01_IGHJ2*01 & L12_IGKJ1*01 (Fab, V domains shown)
VH: QVQLVQSGAEVKKPGASVKVSCKASGYTFTSYYMHWVRQAPGQGLEWMGIINPSGGSTSYAQKFQGRVTMTRDTSTSTVYMELSSLRSEDTAVYYCAREGYCSGGSCYSYWYFDLWGRGTLVTVSS
VL: not shown
notes: Germline-derived Fab from E. coli: VH in Plasmid A (CH1, His6 and Flag tags), VL in Plasmid C (kappa CL)

- ECL signal [9]: 2830
- ECL signal [10]: 144000
- ECL signal [11]: 4040
- ECL signal [12]: 5890
- ECL signal [13]: 1750
- ECL signal [14]: 125000
- ECL signal [15]: 2720
- ECL signal [16]: 4210
- ECL signal [17]: 4760
- ECL signal [18]: 119000
- ECL signal [19]: 6950
- ECL signal [20]: 9740
- ECL signal [21]: 10200
- ECL signal [22]: 73600
- ECL signal [23]: 16400
- ECL signal [24]: 20100
B2: Fab VH1-46_IGHD3-10*01_IGHJ4*01 & L12_IGKJ1*01 (Fab, V domains shown)
VH: QVQLVQSGAEVKKPGASVKVSCKASGYTFTSYYMHWVRQAPGQGLEWMGIINPSGGSTSYAQKFQGRVTMTRDTSTSTVYMELSSLRSEDTAVYYCAREYYYGSGSYYNDYFDYWGQGTLVTVSS
VL: not shown
notes: as for B1

- fold decrease in affinity for mDLL4 against hDLL4 [25]: 10 fold
- fold increased binding affinity against the antibody mutants with heavy chain H:APFF ALTH [26]: ~10 fold
- Kd [27]: ~1 nM
- fold greater affinity for hDLL4 than for mouse DLL4 [28]: 5 fold
- binding result [29]: no binding (tested: 20 nM Fab)
- binding result [30]: no binding (tested: 20 nM Fab)
B3: Fab VH1-46_IGHD6-6*01_IGHJ1*01 H:APFF VLTH & L6_IGKJ1*01 L:NDH LS (Fab, V domains shown)
VH: QVQLVQSGAEVKKPGASVKVSCKASGYTFTSYYMHWVRQAPGQGLEWMGIVLPTGHSTSYAQKFQGRVTMTRDTSTSTVYMELSSLRSEDTAVYYCAREEYAPFSAEYFQFWGQGTLVTVSS
VL: EIVLTQSPATLSLSPGERATLSCRASQNVDHYLAWYQQKPGQAPRLLIYDALNRSTGIPARFSGSGSGTDFTLTISSLEPEDFAVYYCQQRSNWPPWTFGQGTKVEIKR
notes: all other places give 370; also called Fab H:APFF VLTH & L:NDH LS; anti-DLL4 Fab H:APFF VLTH & L:NDH LS

- Kd [31]: ~30 nM
B4: Fab VH1-46_IGHD6-6*01_IGHJ1*01 H:APFF G56H & L6_IGKJ1*01 (Fab, V domains shown)
VH: QVQLVQSGAEVKKPGASVKVSCKASGYTFTSYYMHWVRQAPGQGLEWMGIINPSGHSTSYAQKFQGRVTMTRDTSTSTVYMELSSLRSEDTAVYYCAREEYAPFSAEYFQFWGQGTLVTVSS
VL: not shown
notes: Fab, kappa light chain; also called H:APFF G56H & L:wt

From patent US20110318339A1 (FABRUS, published 2011)
